According to patent publication US20230129258A1, “HETEROTANDEM BICYCLIC PEPTIDE COMPLEXES” (BicycleTx Limited, priority 2019, published 2023):
Starred links: 1 amine or outer side, 2 acyl side, 3 side chain; linkers in the order of their positions; H or OH if unused. Positions of bridges follow the written chain, without caps; N, C: chain ends. Non-standard residues stand in square brackets, D forms with d. Chains are numbered I, II in the order given. No end group written: not given here. *: point of attachment. TATA = O=C(CC[*:1])N1CN(C(=O)CC[*:2])CN(C(=O)CC[*:3])C1; Hyp = O=C(O)[C@@H]1C[C@@H](O)CN1; hArg = N=C(N)NCCCC[C@H](N)C(=O)O; tBuAla = CC(C)(C)C[C@H](N)C(=O)O; dK(PYA) = not defined here; Nle = CCCC[C@H](N)C(=O)O; Pent4ynoyl = C#CCCC(=O)*

Molecular target: CD137 on Jurkat reporter cells (Promega kit CS196005) (UniProt Q07011)
Sequence (Q07011 24-255 limits assumed): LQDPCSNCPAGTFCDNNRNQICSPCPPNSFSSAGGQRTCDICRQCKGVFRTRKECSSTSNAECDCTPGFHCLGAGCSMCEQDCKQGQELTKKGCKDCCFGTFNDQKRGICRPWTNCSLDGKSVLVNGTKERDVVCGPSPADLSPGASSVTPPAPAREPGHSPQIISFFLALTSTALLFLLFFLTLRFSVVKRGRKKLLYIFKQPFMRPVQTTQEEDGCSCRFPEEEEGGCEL
Test: cell-based or functional assay

Binder	Fold Improvement over BCY9173, EC50, PC3 [fold]	Fold Improvement over Emax (BCY9173), PC3 [fold]
BCY12724 (linker I:4-I:11-I:18, II:1-II:8-II:15 via TATA; not fully specified (bridges); reading uncertain; also: two CD137 bicycles per complex (EphA2:CD137 1:2)) peptide 1: A[hArg]DC[Hyp]LVNPLCLHP[dD]W[hArg]C peptide 2: Ac-C[tBuAla]PE[dK(PYA)]PYCFADPY[Nle]C	1.1	1.9
BCY14052 (BCY8928: Ac-(SEQ ID NO: 11)-A; TATA; linker at dLys(PYA)4; BCY13920: A[HArg]D-(SEQ ID NO: 159); TATA; linker at N-terminus) peptide 1: AXDCXLVNPLCLFPDWXC peptide 2: CXPEXPYCFADPYXCA	4.16	1.89
BCY12723 (linker I:4-I:11-I:18, II:1-II:8-II:15 via TATA; not fully specified (bridges); reading uncertain; also: two CD137 bicycles per complex (EphA2:CD137 1:2)) peptide 1: A[hArg]DC[Hyp]LVNPLCLHP[dD]W[hArg]C peptide 2: Ac-C[tBuAla]EE[dK(PYA)]PYCFADPY[Nle]C	2.2	1.8
BCY14050 (BCY8928: Ac-(SEQ ID NO: 11)-A; TATA; linker at dLys(PYA)4; BCY13918: A[HArg]D-(SEQ ID NO: 157); TATA; linker at N-terminus) peptide 1: AXDCXLVNPLCLXPDWXC peptide 2: CXPEXPYCFADPYXCA	2.05	1.91
BCY14051 (BCY8928: Ac-(SEQ ID NO: 11)-A; TATA; linker at dLys(PYA)4; BCY13919: A[HArg]D-(SEQ ID NO: 158); TATA; linker at N-terminus) peptide 1: AXDCXLVNPLCLXPDWXC peptide 2: CXPEXPYCFADPYXCA	3.15	1.88
heterotandem bicyclic peptide complex BCY12491 (linker I:4-I:11-I:18, II:1-II:8-II:15 via TATA (inferred); also: N-(acid-PEG3)-N-bis(PEG3-azide) linker at chain 1 N-terminus, joined to dLys(PYA)4 of two BCY8928 chains (1:2 complex)) peptide 1: A[hArg]DC[Hyp]LVNPLCLHP[dD]W[hArg]C peptide 2: Ac-C[tBuAla]PE[dK](Pent4ynoyl)PYCFADPY[Nle]CA	2.3	1.8
BCY12725 (linker I:4-I:11-I:18, II:1-II:8-II:15 via TATA; not fully specified (bridges); reading uncertain; also: two CD137 bicycles per complex (EphA2:CD137 1:2)) peptide 1: A[hArg]DC[Hyp]LVNPLCLHP[dD]W[hArg]C peptide 2: Ac-C[tBuAla]PE[dK(PYA)]PYCFANPY[Nle]C	0.1	0.7
BCY13279 (linker I:1-I:8-I:15, II:1-II:8-II:15 via TATA (inferred); also: linker N-(acid-PEG3)-N-bis(PEG3-azide) on C-terminal dK of chain 1, joins two chain 2 copies via PYA triazoles) peptide 1: Ac-C[Hyp]LVNPLCLHP[dD]W[hArg]CL[dH]G[dK] peptide 2: Ac-C[tBuAla]PE[dK](Pent4ynoyl)PYCFADPY[Nle]CA	4.74	2.08
